Measurements published in patent US20240117030A1 (Pfizer, published 2024).

T1: recombinant human IL-33 (human, UniProt O95760 112-270, limits assumed)
T1 sequence (looked up): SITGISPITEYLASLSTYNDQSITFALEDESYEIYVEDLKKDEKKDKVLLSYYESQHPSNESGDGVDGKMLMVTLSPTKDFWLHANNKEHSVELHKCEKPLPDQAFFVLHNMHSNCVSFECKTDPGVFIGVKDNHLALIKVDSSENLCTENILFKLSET

T2: recombinant human IL-4 (human, UniProt P05112 25-153)
T2 sequence (looked up): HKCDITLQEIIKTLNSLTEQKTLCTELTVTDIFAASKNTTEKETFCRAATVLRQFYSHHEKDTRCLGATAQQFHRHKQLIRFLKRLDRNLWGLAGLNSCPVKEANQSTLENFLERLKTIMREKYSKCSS


Experiments:
Assay in all cases: cell-based or functional assay
recombinant human IL-33 = molecular target: T1, recombinant human IL-33
recombinant human IL-13 = recombinant human IL-13 (human, UniProt P35225 35-146)
recombinant human IL-4 = molecular target: T2, recombinant human IL-4

Sequence of recombinant human IL-13 (P35225 35-146 limits assumed): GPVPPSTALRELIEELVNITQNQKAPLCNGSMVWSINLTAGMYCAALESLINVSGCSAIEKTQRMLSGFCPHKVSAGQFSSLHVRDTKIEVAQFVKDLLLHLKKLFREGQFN

| IL-33 WT Activation of SEAP Reporter Cells, potency of cytokine neutralization (recombinant human IL-33) [pM] | IL-13 Induced CD23 Expression, potency of cytokine neutralization (recombinant human IL-13) [pM] | IL-4 Induced CD23 Expression, potency of cytokine neutralization (recombinant human IL-4) [pM] | Binder |
| --- | --- | --- | --- |
| 112 | 9.01 | 10.3 | IL13433-0006 (other) heavy: EVQLVESGGGLVQPGGSLRLSCAASGFTFSSYAMSWVRQAPGKGLEWVASISSGDTTYYPDSVKGRFTISRDNAKNSLYLQMNSLRAEDTAVYYCARNEGYYFGLTLWGQGTLVTVSSASTKGPSVFPKAPSSKSTSGGTAALGCLVKDYFPEPVTVSWNSGALTSGVHTFPAVLQSSGLYSLSSSVTVPSSSLGTQTYICNVNHKPSNTKVDKKVEPKSCDKTHTCPPCPAPEAAGAPSVFLFPPKPKDTLMISRTPEVTCVVVDVSHEDPEVKFNWYVDGVEVHNAKTKPREEQYNSTYRVVSVLTVLHQDWLNGKEYKCKVSNKALPAPIEKTISKAKGQPREPQVCTLPPSREEMTKNQVSLWCLVKGFYPSDIAVEWESNGQPENNYKTTPPVLDSDGSFFLYSKLTVDKSRWQQGNVFSCSVMHEALHNHYTQKSLSLSPGK chain 1: DIQMTQSPSSLSASVGDRVTITCKASQNINKHLDWYQQKPGKAPKLLIYFTNNLQTGVPSRFSGSGSGTDFTLTISSLQPEDFATYYCFQYNQGWTFGGGTKVEIKRTVAAPSVFIFPPSDEQLKSGTASVVCLLNNFYPREAKVQWKVDNALQSGNSQESVTEQDSKDSTYSLSSTLTLSKADYEKHKVYACEVTHQGLSSPVTKSFNRGECGGGGSEVTLRESGPALVKPTQTLTLTCTFSGFSLSNFGEGLSWIRQPPGKGLEWLAHIYWDDDKRYNPSLKSRLTISKDTSRNQVVLTMTNMDPVDTATYYCARRETVFYWYFDVWGQGTTVTVSSASTKGPSVFPEAPSSKSTSGGTAALGCLVKDYFPEPVTVSWNSGALTSGVHTFPAVLQSSGLYSLGSVVTVPSSSLGTQTYICNVNHKPSNTKVDKKVEPKSCDKTHTCPPCPAPEAAGAPSVFLFPPKPKDTLMISRTPEVTCVVVDVSHEDPEVKFNWYVDGVEVHNAKTKPREEQYNSTYRVVSVLTVLHQDWLNGKEYKCKVSNKALPAPIEKTISKAKGQPREPQVYTLPPCREEMTKNQVSLSCAVKGFYPSDIAVEWESNGQPENNYKTTPPVLDSDGSFFLVSKLTVDKSRWQQGNVFSCSVMHEALHNHYTQKSLSLSPGK light 1: DIQMTQSPSSLSASVGDRVTITCKASESVDHFGWSLVHWYQQKPGKAPKLLIYRASNLESGVPSRFSGSGSGTDFTLTISSLQPEDFATYYCQQSNEDPWTFGGGTKVEIKRTVAAPSVFIFPPSDEQLKSGTASVSCLLNNFYPREAKVQWKVDNALQSGNSQESVTEQDSKDSTYSLDSTLTLSKADYEKHKVYACEVTHQGLSSPVTKSFNRGEC light 2: DIQMTQSPSSLSASVGDRVTITCKASQSVDEDGDSYMNWYQQKPGKAPKLLIYAASNLESGVPSRFSGSGSGTDFTLTISSLQPEDFATYYCQQSNEDPPTFGGGTKVEIKRTVAAPSVFIFPPSDEQLKSGTASVSCLLNNFYPREAKVQWKVDNALQSGNSQESVTEQDSKDSTYSLKSTLTLSKADYEKHKVYACEVTHQGLSSPVTKSFNRGEC chain 2: EVQLVESGGGLVQPGGSLRLSCAASGFTFSSYWMYWVRQAPGKGLEWVAAITPNAGEDYYPESVKGRFTISRDNAKNSLYLQMNSLRAEDTAVYYCARGHYYYTSYSLGYWGQGTLVTVSSASTKGPSVFPLAPSSKSTSGGTAALGCLVKDYFPEPVTVSWNSGALTSGVHTFPAVLQSSGLYSLSSVVTVPSSSLGTQTYICNVNHKPSNTKVDKKVEPKSC |
| 21 | 8.97 | 13.9 | IL13433-1261 (other) heavy: EVQLVESGGGLVQPGGSLRLSCAASGFTFSSYWMYWVRQAPGKGLEWVAAITPNAGEDYYPESVKGRFTISRDNAKNSLYLQMNSLRAEDTAVYYCARGQYYYTKYSLGYWGQGTLVTVSSASTKGPSVFPLAPSSKSTSGGTAALGCLVKDYFPEPVTVSWNSGALTSGVHTFPAVLQSSGLYSLSSVVTVPSSSLGTQTYICNVNHKPSNTKVDKKVEPKSCDKTHTCPPCPAPEAAGAPSVFLFPPKPKDTLMISRTPEVTCVVVDVSHEDPEVKFNWYVDGVEVHNAKTKPREEQYNSTYRVVSVLTVLHQDWLNGKEYKCKVSNKALPAPIEKTISKAKGQPREPQVYTLPPSREEMTKNQVSLTCLVKGFYPSDIAVEWESNGQPENNYKTTPPVLDSDGSFFLYSRLTVDKSRWQQGNVFSCSVLHEALHSHYTQKSLSLSPGK chain 1: DIQMTQSPSSLSASVGDRVTITCKASESVDHFGWSLVHWYQQKPGKAPKLLIYRASNLESGVPSRFSGSGSGTDFTLTISSLQPEDFATYYCQQSNEDPWTFGGGTKVEIKRTVAAPSVFIFPPSDEQLKSGTASVVCLLNNFYPREAKVQWKVDNALQSGNSQESVTEQDSKDSTYSLSSTLTLSKADYEKHKVYACEVTHQGLSSPVTKSFNRGECGGGGSEVTLRESGPALVKPTQTLTLTCTFSGFSLSNFGEGLSWIRQPPGKGLEWLAHIYWDDDKRYNPSLKSRLTISKDTSRNQVVLTMTNMDPVDTATYYCARRETVFYWYFDVWGQGTTVTVSSASTKGPSVFPLAPSSKSTSGGTAALGCLVKDYFPEPVTVSWNSGALTSGVHTFPAVLQSSGLYSLSSVVTVPSSSLGTQTYICNVNHKPSNTKVDKKVEPKSCDKTHTCPPCPAPEAAGAPSVFLFPPKPKDTLMISRTPEVTCVVVDVSHEDPEVKFNWYVDGVEVHNAKTKPREEQYNSTYRVVSVLTVLHQDWLNGKEYKCKVSNKALPAPIEKTISKAKGQPREPQVYTLPPSREEMTKNQVSLTCEVKGFYPSDIAVEWESNGQPENNYKTTPPVLDSDGSFFLYSKLTVDKSRWQQGNVFSCSVLHEALHSHYTQKSLSLSPGK light 1: DIQMTQSPSSLSASVGDRVTITCRASQPIHNHLDWYQQKPGKAPKLLIYFGKNLQEGVPSRFSGSGSGTDFTLTISSLQPEDFATYYCFQYKKGWSFGGGTKVEIKRTVAAPSVFIFPPSDEQLKSGTASVVCLLNNFYPREAKVQWKVDNALQSGNSQESVTEQDSKDSTYSLSSTLTLSKADYEKHKVYACEVTHQGLSSPVTKSFNRGEC light 2: DIQMTQSPSSLSASVGDRVTITCRASQSVDEEGDSYMNWYQQKPGKAPKLLIYAASNLESGVPSRFSGSGSGTDFTLTISSLQPEDFATYYCQQSNKDPPTFGGGTKVEIKRTVAAPSVFIFPPSDEQLKSGTASVVCLLNNFYPREAKVQWKVDNALQSGNSQESVTEQDSKDSTYSLSSTLTLSKADYEKHKVYACEVTHQGLSSPVTKSFNRGEC chain 2: EVQLVESGGGLVQPGGSLRLSCAASGFTFSSYAMSWVRQAPGKGLEWVASISSGDTTYYPDSVKGRFTISRDNAKNSLYLQMNSLRAEDTAVYYCARNEGYYFGLTLWGQGTLVTVSSASTKGPSVFPLAPSSKSTSGGTAALGCLVKDYFPEPVTVSWNSGALTSGVHTFPAVLQSSGLYSLSSVVTVPSSSLGTQTYICNVNHKPSNTKVDKKVEPKSC |
| 28 | 12.4 | 7.1 | IL13433-1042 (other) heavy: EVQLVESGGGLVQPGGSLRLSCAASGFTFSSYWMYWVRQAPGKGLEWVAAITPNAGEDYYPESVKGRFTISRDNAKNSLYLQMNSLRAEDTAVYYCARGQYYYTKYSLGYWGQGTLVTVSSASTKGPSVFPLAPSSKSTSGGTAALGCLVKDYFPEPVTVSWNSGALTSGVHTFPAVLQSSGLYSLSSVVTVPSSSLGTQTYICNVNHKPSNTKVDKKVEPKSCRKTHTCPRCPAPEAAGAPSVFLFPPKPKDTLMISRTPEVTCVVVDVSHEDPEVKFNWYVDGVEVHNAKTKPREEQYNSTYRVVSVLTVLHQDWLNGKEYKCKVSNKALPAPIEKTISKAKGQPREPQVYTLPPSREEMTKNQVSLTCLVKGFYPSDIAVEWESNGQPENNYKTTPPVLDSDGSFFLYSRLTVDKSRWQQGNVFSCSVLHEALHSHYTQKSLSLSPGK chain 1: DIQMTQSPSSLSASVGDRVTITCKASESVDHFGWSLVHWYQQKPGKAPKLLIYRASNLESGVPSRFSGSGSGTDFTLTISSLQPEDFATYYCQQSNEDPWTFGGGTKVEIKRTVAAPSVFIFPPSDEQLKSGTASVVCLLNNFYPREAKVQWKVDNALQSGNSQESVTEQDSKDSTYSLSSTLTLSKADYEKHKVYACEVTHQGLSSPVTKSFNRGECGGGGSEVTLRESGPALVKPTQTLTLTCTFSGFSLSNFGEGLSWIRQPPGKGLEWLAHIYWDDDKRYNPSLKSRLTISKDTSRNQVVLTMTNMDPVDTATYYCARRETVFYWYFDVWGQGTTVTVSSASTKGPSVFPLAPSSKSTSGGTAALGCLVKDYFPEPVTVSWNSGALTSGVHTFPAVLQSSGLYSLSSVVTVPSSSLGTQTYICNVNHKPSNTKVDKKVEPKSCEKTHTCPECPAPEAAGAPSVFLFPPKPKDTLMISRTPEVTCVVVDVSHEDPEVKFNWYVDGVEVHNAKTKPREEQYNSTYRVVSVLTVLHQDWLNGKEYKCKVSNKALPAPIEKTISKAKGQPREPQVYTLPPSREEMTKNQVSLTCEVKGFYPSDIAVEWESNGQPENNYKTTPPVLDSDGSFFLYSKLTVDKSRWQQGNVFSCSVLHEALHSHYTQKSLSLSPGK light 1: DIQMTQSPSSLSASVGDRVTITCRASQPIHNHLDWYQQKPGKAPKLLIYFGKNLQEGVPSRFSGSGSGTDFTLTISSLQPEDFATYYCFQYKKGWSFGGGTKVEIKRTVAAPSVFIFPPSDEQLKSGTASVVCLLNNFYPREAKVQWKVDNALQSGNSQESVTEQDSKDSTYSLSSTLTLSKADYEKHKVYACEVTHQGLSSPVTKSFNRGEC light 2: DIQMTQSPSSLSASVGDRVTITCRASQSVDEEGDSYMNWYQQKPGKAPKLLIYAASNLESGVPSRFSGSGSGTDFTLTISSLQPEDFATYYCQQSNEDPPTFGGGTKVEIKRTVAAPSVFIFPPSDEQLKSGTASVVCLLNNFYPREAKVQWKVDNALQSGNSQESVTEQDSKDSTYSLSSTLTLSKADYEKHKVYACEVTHQGLSSPVTKSFNRGEC chain 2: EVQLVESGGGLVQPGGSLRLSCAASGFTFSSYAMSWVRQAPGKGLEWVASISSGDTTYYPDSVKGRFTISRDNAKNSLYLQMNSLRAEDTAVYYCARNEGYYFGLTLWGQGTLVTVSSASTKGPSVFPLAPSSKSTSGGTAALGCLVKDYFPEPVTVSWNSGALTSGVHTFPAVLQSSGLYSLSSVVTVPSSSLGTQTYICNVNHKPSNTKVDKKVEPKSC |
